How the values were obtained:
[1] = target: the molecule itself; assay: SEC; gel filtration on Superdex 200 (16/70 column), final step of the purification, 50 mM Tris, 300 mM NaCl pH 7.3; for CelM all buffers with 1 mM glutathione; oligomer size from the apparent mass at elution
[2] = target: the molecule itself; assay: not stated; unpublished data; oligomeric state of YpdE, method not given

Row | Protein | stoichiometry N [1] | stoichiometry N [2]
1 | TmPep1050 protein of Thermotoga maritima (TM1050 ORF) (enzyme, UniProt Q9X0E0 1-331, looked up, TmPep1050, M42 aminopeptidase of Thermotoga maritima, product of the TM1050 ORF carried by the JCSG plasmid TmCD00089984; predicted molecular weight of the monomer 37.5 kDa; the tag of the JCSG construct is not described; also called 3ISX; source: E. coli MC1061, plasmid TmCD00089984, purified (heat step 60°C, Ni-NTA IMAC, Superdex 200)) MKELIRKLTEAFGPSGREEEVRSIILEELEGHIDGHRIDGLGNLIVWKGSGEKKVILDAHIDEIGVVVTNVDDKGFLTIEPVGGVSPYMLLGKRIRFENGTIGVVGMEGETTEERQENVRKLSFDKLFIDIGANSREEAQKMCPIGSFGVYDSGFVEVSGKYVSKAMDDRIGCAVIVEVFKRIKPAVTLYGVFSVQEEVGLVGASVAGYGVPADEAIAIDVTDSADTPKAIKRHAMRLSGGPALKVKDRASISSKRILENLIEIAEKFDIKYQMEVLTFGGTNAMGYQRTREGIPSATVSIPTRYVHSPSEMIAPDDVEATVDLLIRYLGA | 2 | –
2 | YpdE, M42 aminopeptidase of E. coli (enzyme, UniProt P77585 1-345, looked up, YpdE, one of three M42 aminopeptidases of E. coli; Only named in the discussion as unpublished data; the construct is not described; copies: 12) MDLSLLKALSEADAIASSEQEVRQILLEEADRLQKEVRFDGLGSVLIRLNESTGPKVMICAHMDEVGFMVRSISREGAIDVLPVGNVRMAARQLQPVRITTREECKIPGLLDGDRQGNDVSAMRVDIGARSYDEVMQAGIRPGDRVTFDTTFQVLPHQRVMGKAFDDRLGCYLLVTLLRELHDAELPAEVWLVASSSEEVGLRGGQTATRAVSPDVAIVLDTACWAKNFDYGAANHRQIGNGPMLVLSDKSLIAPPKLTAWVETVAAEIGVPLQADMFSNGGTDGGAVHLTGTGVPTVVMGPATRHGHCAASIADCRDILQMQQLLSALIQRLTRETVVQLTDFR | – | 12
